In PMC8618851, “The RNA Directed DNA Methylation (RdDM) Pathway Regulates Anthocyanin Biosynthesis in Crabapple (Malus cv. spp.) Leaves by Methylating the McCOP1 Promoter”:

Molecular target: McDRM2 (Malus cv. spp. (crabapple), UniProt UPI0010AA5BBA 1-600)
Experiment: EMSA; 10x binding buffer, MgCl2, NP-40; 2 uL 10x binding buffer, 1 uL 50% glycerol, 1 uL 100 mM MgCl2, 1 uL 1% NP-40, 2 ug protein, 2 uL 0.1 uM biotin oligo; 25 C, 20 min; 12% native PAGE; pH and salt not given
Conditions: protein: recombinant; tags: MBP (pMAL-C2X); label: 3' biotin

McDRM2, sequence (chain, as listed by the source): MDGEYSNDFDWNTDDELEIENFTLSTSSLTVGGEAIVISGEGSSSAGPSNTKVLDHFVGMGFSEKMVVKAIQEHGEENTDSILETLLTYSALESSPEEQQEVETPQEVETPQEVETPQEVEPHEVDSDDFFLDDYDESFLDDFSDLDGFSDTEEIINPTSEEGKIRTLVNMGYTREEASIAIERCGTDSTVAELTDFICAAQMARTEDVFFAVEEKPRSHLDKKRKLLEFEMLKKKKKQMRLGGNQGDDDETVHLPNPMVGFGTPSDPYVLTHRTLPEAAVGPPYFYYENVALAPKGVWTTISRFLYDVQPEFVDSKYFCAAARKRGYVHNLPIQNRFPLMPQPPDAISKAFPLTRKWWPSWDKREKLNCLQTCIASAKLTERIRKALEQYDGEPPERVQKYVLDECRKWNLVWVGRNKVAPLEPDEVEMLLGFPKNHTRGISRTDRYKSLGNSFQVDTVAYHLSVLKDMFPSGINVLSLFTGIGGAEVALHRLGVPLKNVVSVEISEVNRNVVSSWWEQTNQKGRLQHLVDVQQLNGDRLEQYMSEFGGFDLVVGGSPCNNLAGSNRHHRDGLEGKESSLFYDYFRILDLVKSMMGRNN

B1: McCOP1 promoter SINE-site probe (dsDNA)
DNA 1: TTCAACGTATTAACTTTATCGGTTCGGTGGACAATTCC
DNA 2: GGAATTGTCCACCGAACCGATAAAGTTAATACGTTGAA
B1: no binding.
